# From patent publication US8211649B2, “Methods of diagnosing and prognosing hodgkin's lymphoma” (Human Genome Sciences, Inc., priority 2006, dated 2012)
# Where two headings read alike, the source gives them in different places.
# B1: IL-4: cytokine (protein, UniProt P05112 25-153, looked up)
# Interleukin-4: HKCDITLQEIIKTLNSLTEQKTLCTELTVTDIFAASKNTTEKETFCRAATVLRQFYSHHEKDTRCLGATAQQFHRHKQLIRFLKRLDRNLWGLAGLNSCPVKEANQSTLENFLERLKTIMREKYSKCSS
# B2: IL-10: cytokine (protein, UniProt P22301 19-178, looked up)
# Interleukin-10: SPGQGTQSENSCTHFPGNLPNMLRDLRDAFSRVKTFFQMKDQLDNLLLKESLLEDFKGYLGCQALSEMIQFYLEEVMPQAENQDPDIKAHVNSLGENLKTLRLRLRRCHRFLPCENKSKAVEQVKNAFNKLQEKGIYKAMSEFDIFINYIEAYMTMKIRN
# Tests used:
# [1] = test system: Neutrokine-alpha expression on monocytes; assay: FACS of Neutrokine-alpha cell surface expression with mAb 2E5; type: cell-based, human; settings: IFN-gamma 100 U/mL for three days
# Experimental: The expression profile of Neutrokine-alpha was assessed by Northern blot (FIG. 7B) and flow cytometric analyses (Table V and FIGS. 8A, 8B and 8C). Neutrokine-alpha is encoded by a single 2.6 kb mRNA found at high levels in peripheral blood leukocytes, spleen, lymph node and bone marrow. Lower expression levels were detected in placenta, heart, lung, fetal liver, thymus and pancreas. Among a panel of cell lines, Neutrokine-alpha mRNA was detected in HL-60 and […], but not in Raji, HeLa, or MOLT-4 cells. […] A concomitant increase in Neutrokine-alpha-specific mRNA was also detected (FIG. 8C). By contrast, Neutrokine-alpha was not expressed on freshly isolated peripheral blood granulocytes, T cells, B cells, or NK cells.
# (§1) FACS analysis. Neutrokine-alpha expression was assessed on human cell lines, freshly isolated normal peripheral blood nucleated cells, and in vitro cultured monocytes, a mouse anti-human Neutrokine-alpha mAb 2E5 (IgG1) followed by PE-conjugated F(ab′)2 goat antibody to mouse IgG (CALTAG Laboratories, Burlingame, Calif.). Cells were analyzed using a FACScan (Becton Dickinson Immunocytometry Systems, San Jose, Calif.) with propidium iodide to exclude dead cells. Neutrokine-alpha binding was assessed using rNeutrokine-alpha biotinylated with a N-hydroxysuccinimidobiotin reagent (Pierce, Rockford, Ill.) followed by PE-conjugated streptavidin (Dako Corp, Glostrup, Denmark).
# [2] = test system: Neutrokine-alpha expression in monocytes and macrophages; assay: cytokine effect on Neutrokine-alpha expression and release in monocytes and macrophages; type: cell-based; settings: single cytokine, in vitro
# Neutrokine-alpha protein [3] = biological target: T1, Neutrokine-alpha protein (Homo sapiens, UniProt Q9Y275)
# T1 sequence (Q9Y275 134-285 limits assumed): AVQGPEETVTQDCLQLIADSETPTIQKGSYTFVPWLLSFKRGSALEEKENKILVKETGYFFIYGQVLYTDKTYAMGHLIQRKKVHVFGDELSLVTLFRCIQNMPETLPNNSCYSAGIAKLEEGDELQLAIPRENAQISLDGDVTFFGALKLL
# Experimental: 449 subjects with SLE by ACR criteria (Tan et al., Arthritis Rheum. 25:1271-7, (1982); and Hochberg et al., Arthritis Rheum. 40:1725, (1997)) and SELENA SLEDAI score ≧4 at screening were dosed.
# Neutrokine-alpha protein [4] = biological target: T1, Neutrokine-alpha protein; remark: listed apart in the source
# Experimental: A Phase 2, multi-center, randomized, double-blind, placebo-controlled study was performed in subjects with RA. Subjects were randomized into 4 treatment groups (placebo, 1 mg/kg, 4 mg/kg and 10 mg/kg).
# An ACR20 response is defined as at least a 20% reduction in tender joint count and swollen joint count, in addition to an improvement of at least 20% on three of five other assessments of symptoms or disease manifestations (i.e., patient pain assessment, patient global assessment, physician global assessment, patient self-assessed disability, acute-phase reactant [ESR or CRP]).
# [5] = test system: Neutrokine-alpha receptor; assay: FACS binding of biotinylated Neutrokine-alpha to blood cells and cell lines; parameters: species or system human
# From the text: In an attempt to correlate the specific biological activity on B cells with receptor expression, purified Neutrokine-alpha was biotinylated. […] In contrast, biotinylated Neutrokine-alpha bound peripheral CD20^+ B cells. Receptor expression was also detected on the B cell tumor lines REH, ARH-77, Raji, Namalwa, RPMI 8226, and IM-9 but not any of the myeloid-derived lines tested including THP-1, HL-60, K-562, and U-937. Similar results were also obtained using a biologically active FLAG-tagged Neutrokine-alpha protein instead of the chemically modified biotin-Neutrokine-alpha. […] It remains to be shown whether cellular activation may induce expression of Neutrokine-alpha receptors on peripheral blood cells, other normal cell types or established cell lines.
# as §1
# human tonsillar B cells = assay: B lymphocyte co-stimulatory proliferation assay (3H-thymidine); type: cell-based; settings: after biotinylation
# Experimental: Purified recombinant Neutrokine-alpha (“rNeutrokine-alpha”) was assessed for its ability to induce activation, proliferation, differentiation or death in numerous cell based assays involving B cells, T cells, monocytes, NK cells, hematopoietic progenitors, and a variety of cell types of endothelial and epithelial origin. […] A dose-dependent response is readily observed as the amount of crosslinking agent increases in the presence of a fixed concentration of either 1L2 or rNeutrokine-alpha.
# B lymphocyte proliferation assay. […] The resulting cell population was routinely greater than 95% B cells as assessed by expression of CD19 and CD20. […] Proliferation was quantitated by a 20 h pulse (1 microCi/well) of ^3H-thymidine (6.7 Ci/mM) beginning 72 h post factor addition.
# In Vitro assay—Purified Neutrokine-alpha and/or Neutrokine-alphaSV protein, or truncated forms thereof, is assessed for its ability to induce activation, proliferation, differentiation or inhibition and/or death in B-cell populations and their precursors. […] Novel synergizing agents can be readily identified using this assay. […] The resulting cell population is greater than 95% B cells as assessed by expression of CD45R(B220). […] Proliferation or inhibition is quantitated by a 20 h pulse (1 uCi/well) with ^3H-thymidine (6.7 Ci/mM) beginning 72 h post factor addition. […]
# [6] = parameters: species or system BALB/c mice; settings: mouse
# Experimental: Neutrokine-alpha was radiolabeled with ^125I and injected intravenously into BALB/c mice. Three doses and 4 timepoints over a 24-hr period were studied. Biodistribution was measured by direct counting of the radioactivity in dissected whole organs or tissues and by whole body quantitative autoradiography (QAR).
# HIV = settings: greater activity; cited from earlier work
# B cells = assay: Neutrokine-alpha mediated B cell proliferation, enhancement by cytokines; type: cell-based; settings: observed by the inventors
# [7] = week 52, all treatment groups combined, reduction
molecule,measurement,setting,value
IFN-gamma: cytokine,upregulation of Neutrokine-alpha expression on resting monocytes,[1],approximately 4 fold
same,cell surface expression of Neutrokine-alpha in monocytes and macrophages,[2],enhance
belimumab: an antibody that neutralizes Neutrokine-alpha protein,decrease of serum IgG,Neutrokine-alpha protein [3]; belimumab-treated arms,10%
same,PGA,"Neutrokine-alpha protein [3]; by week 16 through week 52, all active vs. placebo",improved
same,plasma and memory cell populations,Neutrokine-alpha protein [3]; in vivo,preserved
same,"primary efficacy endpoints (percent reduction in SS score at week 24, time to flare over 52 weeks)",Neutrokine-alpha protein [3]; in vivo,did not reach statistical significance
same,"safety, including adverse events, AE severity, infections or lab toxicity vs. placebo",Neutrokine-alpha protein [3]; in vivo,No clinically significant differences
same,severe infusion reaction events,Neutrokine-alpha protein [3]; in vivo,1
same,subjects with pleurisy,Neutrokine-alpha protein [3]; in vivo,3.3%
same,increase of C4,"Neutrokine-alpha protein [3]; low baseline C4, belimumab-treated arms",33%
same,anti-dsDNA+ subjects converted to negative,Neutrokine-alpha protein [3]; week 52,14.5%
same,SS score,"Neutrokine-alpha protein [3]; week 52, ANA+ subjects",significantly reduced
same,median percent change in CD20+ B cells,Neutrokine-alpha protein [3]; [7],54%
same,median percent change in plasmacytoid B cells (CD20+/CD138+),Neutrokine-alpha protein [3]; [7],62%
same,reduction of anti-dsDNA Ab,"Neutrokine-alpha protein [3]; week 52, baseline positive",30%
same,median percent change in activated B-cells (CD20+/CD69+ B cells),"Neutrokine-alpha protein [3]; week 52, reduction",70%
same,SLE flares,Neutrokine-alpha protein [3]; weeks 24-52 using a 24 week baseline,decreased
same,ACR20 response versus placebo,"Neutrokine-alpha protein [4]; 1 mg/kg treatment group, 24 weeks (p=0.0097)",statistically superior
same,ACR20 response,"Neutrokine-alpha protein [4]; Week 48, extension period",approximately 40%
same,ACR20 response versus placebo,"Neutrokine-alpha protein [4]; all active treatment groups combined, 24 weeks (p=0.0213)",statistically superior
same,"CD20+ B-cells, naïve B-cells, activated B-cells and RF",Neutrokine-alpha protein [4]; biological activity,statistically significant reductions
biotinylated Neutrokine-alpha: purified Neutrokine-alpha biotinylated with N-hydroxysuccinimidobiotin reagent,receptor expression (binding of biotinylated Neutrokine-alpha),"[5]; B cell tumor lines REH, ARH-77, Raji, Namalwa, RPMI 8226, IM-9",detected
same,binding of biotinylated Neutrokine-alpha,"[5]; T cells, monocytes, NK cells and granulocytes of human peripheral blood",undetectable
same,receptor expression (binding of biotinylated Neutrokine-alpha),"[5]; myeloid-derived lines THP-1, HL-60, K-562, U-937",not any
same,binding of biotinylated Neutrokine-alpha,[5]; peripheral CD20+ B cells,bound
same,biological function in the standard B cell proliferation assays,human tonsillar B cells,retained biological function
radiolabeled Neutrokine-alpha: Neutrokine-alpha (amino acids 134-285 of SEQ ID NO:2) radiolabeled with 125I,in vivo targeting specificity,[6],high in vivo targeting specificity for lymphoid tissues
same,QAR signal in liver and kidney,[6]; in vivo,no longer had observable levels
same,"QAR signal in spleen, lymph nodes and GALT",[6]; in vivo,still strongly positive
same,concentration of radioactivity in kidney,"[6]; in vivo, iv, 0.01 mg/kg, 3 h",~5 % injected dose (ID)/g
same,concentration of radioactivity in liver,"[6]; in vivo, iv, 0.01 mg/kg, 3 h",~5 % injected dose (ID)/g
same,concentration of radioactivity in lymph node,"[6]; in vivo, iv, 0.01 mg/kg, 3 h",23 % injected dose (ID)/g
same,concentration of radioactivity in spleen,"[6]; in vivo, iv, 0.01 mg/kg, 3 h",63 % injected dose (ID)/g
"Nc1nc(=O)n([C@@H]2CS[C@H](CO)O2)cc1F [COVIRACIL, emtricitabine]",activity in vitro relative to lamivudine (3TC),HIV,3- to 10 fold
CC[C@H]1C(=O)Nc2ccc(F)cc2N1C(=O)OC(C)C [GW-420867X],activity relative to HBY097,HIV,25 fold
C[C@H](Sc1nc(N)cc(Cl)n1)c1cc2ccoc2cn1 [PNU-142721],activity relative to delavirdine,HIV,20- to 50 fold
B1,effect on Neutrokine-alpha mediated B cell proliferation,B cells,enhance
same,cell surface expression of Neutrokine-alpha in monocytes and macrophages,[2],decreased
B2,effect on Neutrokine-alpha mediated B cell proliferation,B cells,enhance
same,cell surface expression of Neutrokine-alpha in monocytes and macrophages,[2],enhance
